In US20120283184A1 (published 2012):
Positions count from the first letter of the chain named.

B1: 1′DelE2 PR4 (designed binder)
chain: EVVAATPTSLLISWRHPHFPTRYYRITYGETGGNSPVQEFTVPLQPPTATISGLKPGVDYTITVYAVTVGQNDHELLTPISINYRT
B2: 1′DelE6 PR4 (designed binder)
chain: B1 chain with V69L, G70A, H74R
B3: 2′Del G11 PR4 (designed binder)
chain: B1 chain with V69G, N72M, D73N, H74R, E75V, L77M
B4: 1′DelD1 PR4 (designed binder)
chain: B1 chain with G70T
B5: 2′DelC7 PR4 (designed binder)
chain: B1 chain with V69W, G70D, D73G, E75V
B6: 2′DelH4 PR4 (designed binder)
chain: B1 chain with Q71P, D73E, H74R, E75M, L77M
B7: 2′Del D10 PR4 (designed binder)
chain: B1 chain with V69L, G70A, Q71D, D73A, H74R
B8: 2′DelE4 PR4 (designed binder)
chain: B1 chain with G70H, Q71W, D73G, L77M
B9: 2′Del F11 PR4 (designed binder)
chain: B1 chain with V69M, H74K, L77I
B10: 1′DelH5 PR4 (designed binder)
chain: B1 chain with G70A, H74R, L77F
B11: 2′Del D3 PR4 (designed binder)
chain: B1 chain with V69S, Q71L, H74R, E75V, L77F, T78I
B12: 3A3 PR3 (designed binder)
chain: B1 chain with V69L, G70A, Q71Y, D73G, H74R, L76I, L77I
B13: 2′DelA5 PR4 (designed binder)
chain: B1 chain with V69W, G70N, D73G, H74Q, L77F
B14: 3B5 PR3 (designed binder)
chain: B1 chain with V69F, D73G, E75A
B15: 1′DelE7 PR4 (designed binder)
chain: B1 chain with G70A, D73G, L77F
B16: 2′DelB7 PR4 (designed binder)
chain: B1 chain with Q71Y, D73N, H74R
B17: 2′Del F8 PR4 (designed binder)
chain: B1 chain with V69A, Q71P, N72G, D73A
B18: 3A2 PR3 (designed binder)
chain: B1 chain with V69W, G70S, D73N, H74R, L77F
B19: 2′DelC3 PR4 (designed binder)
chain: B1 chain with V69W, G70A, D73G, H74R
B20: 1′DelH10 PR4 (designed binder)
chain: B1 chain with V69F, G70A
B21: 2′DelG5 PR4 (designed binder)
chain: B1 chain with D73N
B22: 3B4 PR3 (designed binder)
chain: B1 chain with D73E
B23: 1′DelH12 PR4 (designed binder)
chain: B1 chain with G70A, D73E, H74R, L77F
B24: 2′Del B2 PR4 (designed binder)
chain: B1 chain with V69T, Q71W, D73G, H74N, L77F
B25: 2′Del B3 PR4 (designed binder)
chain: B1 chain with V69D, G70A, Q71P, D73G, H74R, L77M, T78V
B26: 2′Del E3 PR4 (designed binder)
chain: B1 chain with V69L, Q71P, N72Y, D73E
B27: 2′Del D5 PR4 (designed binder)
chain: B1 chain with G70A, Q71W, E75M, L77M
B28: 2′Del A11 PR4 (designed binder)
chain: B1 chain with V69E, G70D, Q71I, N72R, D73V, H74L, E75W, L77N, P79T
B29: 2′Del H6 PR4 (designed binder)
chain: B1 chain with V69T, Q71H, N72H, L77I, T78I
B30: 2′Del C1 PR4 (designed binder)
chain: B1 chain with V69A, Q71L, N72D, D73E, T78I
B31: 2′Del B5 PR4 (designed binder)
chain: B1 chain with V69A, Q71R, N72H, L77I, T78I
B32: 2′Del E5 PR4 (designed binder)
chain: B1 chain with V69E, Q71L, L77I, T78I
B33: 1′Del G10 PR4 (designed binder)
chain: B1 chain with V69M, G70A, D73G, E75K, L77M
B34: 2′Del H12 PR4 (designed binder)
chain: B1 chain with V69A, Q71G, D73G
B35: 1′DelF3 PR4 (designed binder)
chain: B1 chain with V69M, G70A, E75K, L77F
B36: 2′Del C5 PR4 (designed binder)
chain: B1 chain with V69P, Q71H, L77M, T78V
B37: 2′Del D1 PR4 (designed binder)
chain: B1 chain with V69L, G70E, H74R, E75V
B38: 2′Del E6 PR4 (designed binder)
chain: B1 chain with V69M, Q71K, D73G
B39: 2′Del G9 PR4 (designed binder)
chain: B1 chain with G70E, D73G, H74R, L77I, T78I
B40: 2′Del F6 PR4 (designed binder)
chain: B1 chain with V69L, Q71W, L77Y, T78I
B41: 2′Del C6 PR4 (designed binder)
chain: B1 chain with V69M, Q71F, N72M, D73A, L77M, T78V
B42: 2′Del F1 PR4 (designed binder)
chain: B1 chain with V69R, G70D, N72Y, D73E
B43: 1′DelD2 PR4 (designed binder)
chain: B1 chain with G70A, Q71K
B44: 2′Del H5 PR4 (designed binder)
chain: B1 chain with V69L, Q71K, N72D, D73V, H74R
B45: 1′DelD5 PR4 (designed binder)
chain: B1 chain with D73H, L77F
B46: 1′DelA1 PR4 (designed binder)
chain: B1 chain with G70A
B47: 2′Del C11 PR4 (designed binder)
chain: B1 chain with V69A, Q71L, D73E, T78I
B48: 2′DelH9 PR4 (designed binder)
chain: B1 chain with Q71W, N72S, D73G, L77F, T78V
B49: 2′Del C8 PR4 (designed binder)
chain: B1 chain with V69T, G70A, Q71H, D73G
B50: 2′Del F7 PR4 (designed binder)
chain: B1 chain with V69L, Q71L, N72R, H74R, L77F, T78V
B51: 1′DelA2 PR4 (designed binder)
chain: B1 chain with G70A, D73G, E75Q, L77F
B52: 2′Del F5 PR4 (designed binder)
chain: B1 chain with V69L, G70V, Q71H, H74R
B53: 2′Del A2 PR4 (designed binder)
chain: B1 chain with V69G, Q71R, D73G, E75T
B54: 2′Del B4 PR4 (designed binder)
chain: B1 chain with V69S, Q71H, D73G, L76V, L77M

Each binder was assayed against T1, human vascular endothelial growth factor receptor-2 Fc chimera (KDR-Fc) (human, UniProt P35968 20-764) (assay: radioactive equilibrium binding, 1 nM KDR-Fc, % of input).
T1 construct: range 1-764; also called human VEGFR-2; not shown: human IgG1 Fc
T1 sequence (P35968 20-764 limits assumed, change not shown, form in doubt): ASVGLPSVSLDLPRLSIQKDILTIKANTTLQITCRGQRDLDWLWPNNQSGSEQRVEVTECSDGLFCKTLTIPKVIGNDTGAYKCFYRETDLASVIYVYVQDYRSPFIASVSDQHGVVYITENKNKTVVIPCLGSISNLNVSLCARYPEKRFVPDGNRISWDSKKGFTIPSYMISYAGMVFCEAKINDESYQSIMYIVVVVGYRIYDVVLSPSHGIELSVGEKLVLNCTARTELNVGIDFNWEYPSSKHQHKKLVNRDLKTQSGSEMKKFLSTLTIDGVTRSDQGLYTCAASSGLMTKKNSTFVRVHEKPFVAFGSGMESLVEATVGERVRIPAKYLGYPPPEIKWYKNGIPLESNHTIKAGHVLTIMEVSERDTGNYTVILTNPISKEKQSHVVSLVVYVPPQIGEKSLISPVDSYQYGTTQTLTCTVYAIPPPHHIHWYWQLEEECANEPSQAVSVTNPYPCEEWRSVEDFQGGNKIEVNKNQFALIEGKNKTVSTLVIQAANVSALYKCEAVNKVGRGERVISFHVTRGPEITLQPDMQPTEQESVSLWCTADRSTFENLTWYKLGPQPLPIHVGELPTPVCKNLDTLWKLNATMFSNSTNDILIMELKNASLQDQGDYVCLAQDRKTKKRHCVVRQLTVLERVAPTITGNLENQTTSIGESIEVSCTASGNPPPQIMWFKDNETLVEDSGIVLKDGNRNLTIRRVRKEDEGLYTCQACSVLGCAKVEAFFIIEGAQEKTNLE
Method: To prepare ³⁵S-labeled binding proteins for analysis, mRNA was prepared as described above for RNA-protein fusion production but the linker ligation step was omitted. The mRNA was expressed using rabbit reticulocyte lysate translation kit (Ambion) in the presence of ³⁵S-labeled Met at 30° C. for 1 hour. Expressed protein was purified on M2-agarose Flag beads (Sigma) as described above. This procedure produced the encoded protein without the nucleic acid tail. In a direct binding assay, VEGF-R2-Fc fusions in concentrations ranging from 0 to 200 nM were added to a constant concentration of the purified protein (0.2 or 0.5 nM) and incubated at 30° C. for 1 hour in buffer B. The receptor-binder complexes were captured using Protein A magnetic beads for another 10 minutes at room temperature using a Kingfisher™ The beads were washed with six reaction volumes of buffer B. The protein was eluted from the beads with 100 μL of 0.1 M KOH. 50 μL of the reaction mixture and elution were dried onto a LumaPlate-96 (Packard) and the amount of ³⁵S on the plate was measured using a TopCount NXT instrument (Packard). The amount of fibronectin-based scaffold protein bound to the target was estimated as a percent of radioactivity eluted from Protein A magnetic beads compare to radioactivity in the reaction mixture. Nonspecific binding of fibronectin-based scaffold proteins to the beads was determined by measuring binding in the absence of KDR-Fc and represented less than 1-2% of the input. Specific binding was obtained through subtraction of nonspecific binding from total binding. Data was analyzed using the GraphPad Prizm software (GraphPad Software, Inc, San Diego, Calif.), fitted using a one site, non-linear binding equation.

Binding to 1 nM KDR, %	Binder
16%	B1
24%	B2
22%	B3
16%	B4
19%	B5
30%	B6
34%	B7
34%	B8
27%	B9
17%	B10
38%	B11
23%	B12
20%	B13
20%	B14
22%	B15
32%	B16
42%	B17
23%	B18
29%	B19
17%	B20
19%	B21
17%	B22
18%	B23
29%	B24
17%	B25
33%	B26
18%	B27

Binding to 1 nM KDR, %	Binder
16%	B28
28%	B29
32%	B30
33%	B31
19%	B32
36%	B33
24%	B34
16%	B35
26%	B36
28%	B37
43%	B38
33%	B39
22%	B40
34%	B41
20%	B42
17%	B43
34%	B44
17%	B45
14%	B46
34%	B47
20%	B48
15%	B49
38%	B50
23%	B51
22%	B52
17%	B53
31%	B54
